From doi:10.1101/2022.07.21.500383 (bioRxiv, 2022)

What was measured:
Experiment in all cases: ITC
[1] = target: T1, IL-11Δ10/IL-11Rα_(D1-D3) binary complex (human, UniProt P20809 32-199; Q14626 23-317)
T1 sequence 1: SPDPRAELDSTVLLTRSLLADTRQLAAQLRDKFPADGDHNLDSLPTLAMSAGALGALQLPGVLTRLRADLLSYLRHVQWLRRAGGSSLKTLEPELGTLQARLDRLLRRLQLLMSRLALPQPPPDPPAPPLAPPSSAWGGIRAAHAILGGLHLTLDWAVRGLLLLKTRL
T1 sequence 2: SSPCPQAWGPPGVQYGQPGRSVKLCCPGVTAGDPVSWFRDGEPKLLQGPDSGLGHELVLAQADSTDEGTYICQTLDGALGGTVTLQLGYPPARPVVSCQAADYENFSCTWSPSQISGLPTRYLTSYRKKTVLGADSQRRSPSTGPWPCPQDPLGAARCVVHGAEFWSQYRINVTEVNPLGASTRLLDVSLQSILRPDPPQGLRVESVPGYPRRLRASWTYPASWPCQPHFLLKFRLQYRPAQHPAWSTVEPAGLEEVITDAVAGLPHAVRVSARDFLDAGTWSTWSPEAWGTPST

[2] = target: IL-11_(Δ10/PAIDY)/IL-11Rα_(D1-D3) binary complex (human) (UniProt P20809)
[3] = target: IL-11_(Δ10/Mutein)/IL-11Rα_(D1-D3) binary complex (human) (UniProt P20809)
[4] = target: IL-11_(Δ10/W147A)/IL-11Rα_(D1-D3) binary complex (human) (UniProt P20809)

Binder	dH [1] [kcal/mol]	Kd [1] [nM]	Kd [2] [nM]	Kd [3] [nM]	Kd [4] [nM]
gp130EC (complete extracellular domains of gp130, D1-D6) (receptor, human, UniProt P40189 23-619, looked up, N-linked glycans at N21, N61, N135 (visible in the structures)) ELLDPCGYISPESPVVQLHSNFTAVCVLKEKCMDYFHVNANYIVWKTNHFTIPKEQYTIINRTASSVTFTDIASLNIQLTCNILTFGQLEQNVYGITIISGLPPEKPKNLSCIVNEGKKMRCEWDGGRETHLETNFTLKSEWATHKFADCKAKRDTPTSCTVDYSTVYFVNIEVWVEAENALGKVTSDHINFDPVYKVKPNPPHNLSVINSEELSSILKLTWTNPSIKSVIILKYNIQYRTKDASTWSQIPPEDTASTRSSFTVQDLKPFTEYVFRIRCMKEDGKGYWSDWSEEASGITYEDRPSKAPSFWYKIDPSHTQGYRTVQLVWKTLPPFEANGKILDYEVTLTRWKSHLQNYTVNATKLTVNLTNDRYLATLTVRNLVGKSDAAVLTIPACDFQATHPVMDLKAFPKDNMLWVEWTTPRESVKKYILEWCVLSDKAPCITDWQQEDGTVHRTYLRGNLAESKCYLITVTPVYADGPGSPESIKAYLKQAPPSKGPTVRTKKVGKNEAVLEWDQLPVDVQNGFIRNYTIFYRTIIGNETAVNVDSSHTEYTLSSLTSDTLYMVRMAAYTDEGGKDGPEFTFTTPKFAQGEIE	-4.78				
gp130_(D1-D3) (cytokine binding domains of gp130) (receptor, human, N-linked glycans at N21, N61, N135 (visible in the structures)) ELLDPCGYISPESPVVQLHSNFTAVCVLKEKCMDYFHVNANYIVWKTNHFTIPKEQYTIINRTASSVTFTDIASLNIQLTCNILTFGQLEQNVYGITIISGLPPEKPKNLSCIVNEGKKMRCEWDGGRETHLETNFTLKSEWATHKFADCKAKRDTPTSCTVDYSTVYFVNIEVWVEAENALGKVTSDHINFDPVYKVKPNPPHNLSVINSEELSSILKLTWTNPSIKSVIILKYNIQYRTKDASTWSQIPPEDTASTRSSFTVQDLKPFTEYVFRIRCMKEDGKGYWSDWSEEASGITYEDR	-8.13	3	20	55	
gp130_(D2-D3) (receptor, human, UniProt P40189 123-325, looked up) GLPPEKPKNLSCIVNEGKKMRCEWDGGRETHLETNFTLKSEWATHKFADCKAKRDTPTSCTVDYSTVYFVNIEVWVEAENALGKVTSDHINFDPVYKVKPNPPHNLSVINSEELSSILKLTWTNPSIKSVIILKYNIQYRTKDASTWSQIPPEDTASTRSSFTVQDLKPFTEYVFRIRCMKEDGKGYWSDWSEEASGITYEDR	6.45	380	60		130
